Target: JOSD1 (UniProt Q15040)
Assay: co-immunoprecipitation, immunoblot
Conditions: reference: Flag-MCL1 WT; sites S159

MCL-1 (from UniProt Q07820) Flag-MCL1 S159A
binding against the reference: stronger
